Test results from the DeepSol protein solubility set.

Assay: soluble on expression in E. coli; label from the status in PepcDB or PDB records

Row | Sequence | soluble on expression in E. coli
1 | MSDPLTAQEQHKRRQAVRELMPRTPFIGGLGIVFERYEPDDVVIRLPFRTDLTNDGTYFHGGVIASVMDTAGAAAAWSNHDFDRGTRAATVAMSIQYTGAAKRCDLLCHARTARRRKELTFTEITATDPDGNIVAHAVQTYRIV | not soluble
2 | MSDPSSINGGIVVAMTGKDCVAIACDLRLGSQSLGVSNKFEKIFHYGHVFLGITGLATDVTTLNEMFRYKTNLYKLKEERAIEPETFTQLVSSSLYERRFGPYFVGPVVAGINSKSGKPFIAGFDLIGCIDEAKDFIVSGTASDQLFGMCESLYEPNLEPEDLFETISQALLNAADRDALSGWGAVVYIIKKDEVVKRYLKMRQD | soluble
3 | MSDPYPATEAHAQRAAKSPPKSLLDRLLSLVRREPEDREGIKAILEAAHERELLDAESYAMIKGALAVSERTVADIMVPRSRMDLLDISQPLPQLLATIIETAHSRFPVYEDDRDNIIGILLAKDLLRYMLEPALDIRSLVRPAVFIPEVKRLNVLLREFRASRNHLAIVIDEHGGISGLVTMEDVLEQIVGDIEDEFDEDEEESIFPEGENQWRLTASTDISHFNATFATDLPDDEYDSVGGWLGGQLGRIPRRGDSADHDGLHIEVVRADARRALWLRVRRNAGAQPPASAAE | soluble
4 | MSDRVIIAGGGIGGLASALTLHQIGVPCVVYEAAREMRPLGVGINLQPNAVRELLDLGITEADLDGVGLPAKEWALVGLNGNDIYAEPRGKAAGYRWPQYAVHRGRFHMLLNDKVIERLGADAVQLGRRVTSYRKTADGVVATVEHADGGTSEVSGALLIGADGIHSAVRAQMHPNQPPIHWGGAVMWRGTTWGKPTRSGASFIGLGTHRHRVVIYPISHPDPATGLSMLNWIAEVTLDNAEGWKQQGWFRQVPTSEFAHHFDGWVWDWLDVPAMIREADSAYENPMIDRDPVATWRDGPVVLIGDAAHAMYPTGSNGGTQAIVDARELGAAMVAHGATEAALAAFDAKLCGPISQLILRNRGAGPFGLLNLVDERCGGTFDNIDDVIPPAERAAFMAGYKAAAGFAIDHLNAAPPTIAPGARVKESAAALEHHHHHH | not soluble
5 | MSDSFGVYVHVPFCSSRCGYCDFNTYTPGELGGTASPESYLDALEKELELAAASGTTRPATTVFIGGGTPSMLGASGLTRVLSAVRNTIGIAPGAEVTTESNPETTSPEFFSELLDAGYNRISLGMQSASSSVLRVLERKHTPGRAFDAALEAMNAGFLHVNLDMIYGTPTETDDDVRLTLERALDTGVDHISAYSLIVEDGTAMARKVHKGQLPPPNEDVYADRYGLIDTALRAQGFDWYEVSNWAKPGGECQHNLGYWLDGDWWGAGPGAHSHIASRRFFNVKHPSTYAQHLADGQLPIKEEELLDSTERHEESVMLGLRLRQGLELSRFTEAERAVIEKYVGLKLLHIYDGRVASTLQGRLLIDGIIADILVAYLEHHHHHH | not soluble
6 | MSDSQTLVVKLGTSVLTGGSRRLNRAHIVELVRQCAQLHAAGHRIVIVTSGAIAAGREHLGYPELPATIASKQLLAAVGQSRLIQLWEQLFSIYGIHVGQMLLTRADMEDRERFLNARDTLRALLDNNIVPVINENDAVATAEIKVGDNDNLSALAAILAGADKLLLLTDQKGLYTADPRRNPQAELIKDVYGIDDALRAIAGDSVSGLGTGGMSTKLQAADVACRAGIDTIIAAGSKPGVIGDVMEGISVGTLFHAQATPLENRKRWIFGAPPAGEITVDEGATAAILERGSSLLPKGIKSVTGNFSRGEVIRICNLEGRDIAHGVSRYNSDALRRIAGHHSQEIDAILGYEYGPVAVHRDDMITR | not soluble
7 | MSDYCSNDASPFGDYDLPSDEPSPKYQKLNKNIFSPLSPTFELKFQSKLRVSGNSTSSTTSDDSDDESLHRSNQLKHLETLFKESILRTSFSRPGVSNTSCDEKLDLVSEDEKKRLRNTEAARRCREKIKRKTDDLETELTRLTARNEVMNQHRIRLLSQVEEQMRMLENIKSRNPELEAEIRYEAKKIVDTYTHQVETKRKAIQDYFDMTCNKLY | not soluble
8 | MSDYSAKPSGSLARIGDYDLSSDDSDQNDEDETLIASKTIQTGAVQVNDIAVAEASPAETDAKSSASPVSGPEPPTSAVVENRDLDEFKKESGSNDDKQEEINEDKDSNEETVFQQTESGSADVVDKTDVKQKDSDSSADDDHSHSKSGSVHSPQKPQGSTTPCSVQSPASPVGDEQAVKMEEVEEPIVASEEVPDKKPESVKESTDSESSGSEHGFEKMDTAEKVEDECNDDEVAASNGTEEPEPGDKAADTVNPWETPRQEPVDGVVQPRTEPPAGKPTRHTNCLDFVLFTVVKDALKHKHSWPFQLPVDAIKLEIPEYHNIVNTPMDLRTIEKRLRNLYYWCAEDAIKDLNTLFDNCKKFNDRNDDIYIMCENIEGVVQRGLEWMPSEEKPADLADHHRRGMFSASTPSGKTKGPKQRGRKSTRGRKKTSLPRGASTFKDESVDDNNDDESSKVDSINFDDDDDTATEKDAESRAESVQPEVVNEEPKPSTSQPPSKKRKAENGEPAVAVKIATPATPVAAHPQEETPRRKNPNTLIEWKHLVPRWQGKIPEWQKFCSKLLNEIHSVKNKGFAQVFYLPVDPIKLKIYDYLEVITNPMDLQTIKKKLDFKQYAEPEEFVHDINLMVDNCCKYNPKGSPAHSNALELRSFFEQRWKLFPRPGVDPIIADSYINQNLVVNTDLIEDERINSYLSAVKAEEKKCAEKLEQLRSMSEGLYTIAMQRREAKLAGNTAPALAQNQLSQLEGLGISIKSTPMMIPELISPALSVRSSSRAPVPKIIDDIGPSPIKARKISKPRASMASNVSVPYTPTGNPRGRKPKKSGRPKKNIYSPATVSERISQQPPFEVTPYVSIYGRKVVGTNDKIELSERMASIPQMYITPILRIIQIGHHNTGKTITSLRSLCEEEIDFNDVSDDLVIELLDYLEMIQKDKAKAEQVRQELEVKAKFYGFEAYDNKLGTIPKTRNMPPPLQHRMRSDSPSPSASRTGNQSSDSDSASDDSSDDEPSRSNSNVAGPRRALELSGNSSSASTPAGPSKAQPAVVRPSSKSVASKPAYTKRTLSESSSSSDSNGSSSDSSDSDSEPS | not soluble
9 | MSECSASTSQLSTFCVNEIPWKLVPQTCDEFSEYEFIDEKYRRLSDVESFVWKWSPCGRYGIDLPGGRDVINQQLRDRMAVFDLHTNKWTLYTMDRGAFEIPRVCFLYWARNDIIGTITLVKDYEAGPDDEIPLKFKQSFFYVSHETQTLVYSGSCKYRTNKTIVASYWYHIFENRRGEPFIDHNNYLWLVFSNGVDSLILLPFIPTSTCFKAKCVSFDMNDIVSQFTGIRVFLDPFVSSHYVPWVYRNDVNFFIRIDSHSFIEEQNRDYGLDPQIDNPETKPHRGVFQLRVNLKDVIEKGEKDAIHAVNPETIETRFNRGDIELWRKISDELRQEHQSIAQHGKMVVVQRWSHFTVDMGLSKKMRTRVADLDARDYCCSHKPRNSSFCCIDLDSERIKAVDALILGTDVVLPHPSGSVFLFRYKENYGMSYCELPFFQPLSLKLKCIQVLKESVEIDPSYYRIKCCLKMQEELEKETAENLCTINIQQ | not soluble
10 | MSEDLNAGPKVNREFKNSVFTLLFNEVEAIRDIAGAVGAMLGKEINPDTPIKKTTLQNALLGGKLNDLSFVLDDKLIVLIEHQSTINKNMPLRMLHYISEIYNRLYDKKDLYKREKISIPKPVFIVLYNGEEDIKDFEEYLLSDLFKDFDISKEPPCLELRVQVRNINKGHSAEIVKQSPLLRDYVAFVEEVREANREEGASPELAMEKAVENCIKKGILTIFLTRHKEEVIKMLVAEWDYELDLEVAKEEAHEKGLSQGRDEERRKNIKDLYRIGVGIETIAKAFDLSERQVKDILGL | not soluble
11 | MSEDQMKQQLVIDQKAVKETLQQMLTSDQGKKFWESALKDPKFAESFAKGLQAEHEKMMKALMKDPDYQALMIDILKDPEMEKAMVDVLKSKEFRQHLQKVITETLNSPLYQAKIQDMLMKAAEKVQQGGEKQEEEGGGEGGEGEGEESTGNQQGGGG | not soluble
12 | MSEEGPQVKIREASKDNVDFILSNVDLAMANSLRRVMIAEIPTLAIDSVEVETNTTVLADEFIAHRLGLIPLQSMDIEQLEYSRDCFCEDHCDKCSVVLTLQAFGESESTTNVYSKDLVIVSNLMGRNIGHPIIQDKEGNGVLICKLRKGQELKLTCVAKKGIAKEHAKWGPAAAIEFEYDPWNKLKHTDYWYEQDSAKEWPQSKNCEYEDPPNEGDPFDYKAQADTFYMNVESVGSIPVDQVVVRGIDTLQKKVASILLALTQMDQDKVNFASGDNNTASNMLGSNEDVMMTGAEQDPYSNASQMGNTGSGGYDNAW | soluble
13 | MSEEIISKKPSKPQASRKGKRAWRKNIDIQEIEQNLQDKRDEEIVLGKEVTDDFVIDDTPSSKSGKLPKKLKTKEILTNKSKIPALTNQRHQKKGENTIQGVKKTDLLRLIQLNGGKFKSEDKYVNRLEQDGIVNGSSQDLWDDTDNNEKKKIPDFMKSTAEVTKASVVPKTLKVNPIKITSNELTDKKIHAGKSYNPSLESWKELINQEYDIEYKRELTRQQIEEHRNKIKELMITLDDNMLSDSDDDEDDEDNDKVEEEEQLNANGEKDYSLSINKPNKIKIKTKTKRNKELKHKERVKLEQEIKDLKKQLKDLSNLDEILEKQAVKDQSQPNEKKRKRREKLFKYSLVETPLEVKLSDELSGNLKNLKPEGNLYYDQMLSLQSSGKIESRVPVNKKRKYTKKITEKWTYKDFK | not soluble
14 | MSEEVIKFTSPRKQVKEEFKLIDTQKIADVRIQWFGKFTKNREKIMFCWKFFPGDKLQNEGIDFLVGHIKAYPHPTYNDFEPFEFDFNVNGAEHKETREYEYLTKNDWCCATYECELTPFRLYGNMFGASTKHDGVLVVEKKKLNVSKAFLSYHSDFFSDLFSREAHSKDIPIEGVTYFEFGLLISCIHPDHTVFPNDETVSKLLSLADRFSMRAVYRMVEHHLLHSSSNMGIREVIKTADQYGMKELMEKSISRITSTEKVMDLIQSAEFPELSAETKAKLMDCMAKMMR | not soluble
15 | MSEFSPLRRKILLGGAATAGLSLFPSFSFASQFAETPRKLALSNLHTGEELKTEYFNGRQYQSAELHKLNHLCRDFRRNESIEMDKRLFDQLSAIQNVIGCDTQVQIISGYRSPATNEMLRGKSHGGVAKKSLHMLGKAMDFRLEGVPLAEVRKAALSLKAGGVGYYPGSNFVHIDTGRVRFW | not soluble
16 | MSEISDAEKVRIASDFIKHAPPGEFNEVFNSVRMLLENDDLLKNKCVNAIAQYNVGQFVPVKLDGVAKQTLITPYNDLGNGRFYDEVSKKSFKYDHVRKEAADLQPHPAESGITEQWRQALQTQLDIYIDDHYAKSGTGVVFARNGVFTICIESHQFQPKNFCNGRWRSEWNVPVGDGKSGSQEMKGKILSQVHYYEDGNVQLFSEKEPVLKVNVSADFDKTAKEIIHAISEEETIYQNAVQENYANMSDTTFKALRRQLPVTRAKMDWNKAQTYRIGQEMK | soluble
17 | MSEKIRVLLYYKYVSIENAQEYAAKHLEFCKSIGLKGRILIADEGINGTVSGDYETTQKYMDWVHSDERFADLWFKIDEENQQAFRKMFVRYKKEIVHLGLEDNNFDSDINPLETTGEYLNPKQFKEALLDEDTVVLDTRNDYEYDLGHFRGAIRPDIRNFRELPQWVRDNKDKFMEKRVVVYCTGGVRCEKFSGWMVREGFKDVGQLHGGIATYGKDPEVQGELWDGAMYVFDDRISVPINHVNPTVISKDYFDGTPCERYVNCANPFCNKQIFASEENETKYVRGCSPECRAHERNRYVQENGLSRQEWAERLEAIGESLPEFVGALEHHHHHH | soluble
18 | MSEKKSELVGRHKRVAYMNTDATGSSPKFERMTNFTTMTNGKNPKEYSRQYVDEIAERADVVGYAPAIEYSFDRYTNNPVHEKIATIHDGEKLGDDAHVEVVVVDFFKKSDKGDKCYATKRTYAVIPDSDGDGTDALVYSGSLKSVSDIEEGYVTETDFTSKTVTYAKGDYAATELEHHHHHH | soluble
